Source: patent EP2344531B1 (Danisco US Inc., dated 2014)
Changes are numbered by the printed parent chain. Names and notes keep the numbering of the source.

Tests used:
[1] = target: T1, VEGF (vascular endothelial growth factor) (UniProt P15692-4 27-191, limits assumed, biotin label (Example 5)); test: BioVeris ECL competition assay with a labeled competitor; legend: +++ = IC50 about 2 - 10 µM
[2] = target: T2, TNFα (tumor necrosis factor α) (UniProt P01375 77-233); test: BioVeris ECL competition assay with a labeled competitor; legend: ++ = IC50 about 10 - 50 µM
T2 sequence (P01375 77-233 limits assumed): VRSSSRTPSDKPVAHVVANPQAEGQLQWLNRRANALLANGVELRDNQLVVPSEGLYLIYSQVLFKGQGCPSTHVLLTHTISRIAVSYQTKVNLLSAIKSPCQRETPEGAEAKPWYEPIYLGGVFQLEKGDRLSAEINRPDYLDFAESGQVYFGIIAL

[3] = target: T2, TNFα (tumor necrosis factor α); test: BioVeris ECL competition assay with a labeled competitor; negative control
[4] = target: T1, VEGF (vascular endothelial growth …); test: BioVeris ECL competition assay with a labeled competitor; legend: ++ = IC50 about 10 - 50 µM
[5] = target: T3, FGF-5 (fibroblast growth factor 5) (UniProt P12034 18-268, limits assumed); test: as above
T3 sequence (looked up): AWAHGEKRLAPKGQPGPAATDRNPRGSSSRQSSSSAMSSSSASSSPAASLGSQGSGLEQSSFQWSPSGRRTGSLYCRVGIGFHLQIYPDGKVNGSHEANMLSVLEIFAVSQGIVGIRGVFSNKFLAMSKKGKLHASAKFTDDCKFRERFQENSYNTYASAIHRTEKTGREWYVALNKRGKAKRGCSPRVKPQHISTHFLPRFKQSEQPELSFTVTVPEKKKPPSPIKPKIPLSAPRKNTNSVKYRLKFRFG

[6] = target: T4, TGFβ1 (transforming growth factor β1) (UniProt P01137 279-390); test: BioVeris ECL competition assay with a labeled competitor; negative control
T4 sequence (P01137 279-390 limits assumed): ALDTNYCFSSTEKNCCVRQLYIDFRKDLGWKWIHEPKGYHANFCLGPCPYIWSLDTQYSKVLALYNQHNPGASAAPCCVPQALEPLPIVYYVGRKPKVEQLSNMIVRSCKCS

[7] = target: T4, TGFβ1 (transforming growth factor β1); test: BioVeris ECL competition assay with a labeled competitor; legend: ++ = IC50 about 10 - 50 µM
[8] = target: T2, TNFα (tumor necrosis factor α); test: BioVeris ECL competition assay with a labeled competitor; legend: + = IC50 about 50 - 250 µM

T1 sequence (P15692 other isoform, or with tags, fused parts or gaps limits assumed): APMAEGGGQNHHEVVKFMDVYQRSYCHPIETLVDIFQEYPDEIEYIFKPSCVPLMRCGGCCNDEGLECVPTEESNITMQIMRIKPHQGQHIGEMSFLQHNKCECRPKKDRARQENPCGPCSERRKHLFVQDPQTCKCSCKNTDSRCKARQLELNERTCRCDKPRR

B1: VegKD-Q (BBIt-A13I-S25K-L29P-V52K with the VEGF-binding peptide VegKD KYDLYWW) (designed binder)
chain: DPDDESSKPCCDQCICTKSNPPQCRCKDMRPNSCHSACKSCICKYDLYWWCFCKDITDFCYEPCKPSE
IC50 [1]: 2 to 10 µM

B2: BBIt-TNF-T1 (BBIt-TNFα-T1-A13I-S25R-M27A-L29P-S31A-F50K-V52T, peptide RYWQDIP) (designed binder)
chain: DPDDESSKPCCDQCICTKSNPPQCRCRDARPNACHSACKSCACRYWQDIPCKCTDITDFCYEPCKPSE
IC50 [2]: 10 to 50 µM

B3: BBIt-AV-V1 (BBIt-VEGF-V1-A13I-S25R-M27A-L29P-S31A-F50K-V52T, peptide SKHSQIT) (designed binder)
chain: B2 chain with R44S, Y45K, W46H, Q47S, D48Q, P50T
IC50 [3]: > 250 µM | IC50 [4]: 10 to 50 µM

B4: BBIt-AV-V5 (BBIt-VEGF-V5-A13I-S25R-M27A-L29P-S31A-F50K-V52T, peptide KPSSASS) (designed binder)
chain: B2 chain with R44K, Y45P, W46S, Q47S, D48A, I49S, P50S
IC50 [4]: 10 to 50 µM

B5: BBIt-AV-V2 (BBIt-VEGF-V2-A13I-S25R-M27A-L29P-S31A-F50K-V52T, peptide KTNPSGS) (designed binder)
chain: B2 chain with R44K, Y45T, W46N, Q47P, D48S, I49G, P50S
IC50 [1]: 2 to 10 µM

B6: BBIt-AV-V3 (BBIt-VEGF-V3-A13I-S25R-M27A-L29P-S31A-F50K-V52T, peptide RPTGHSL) (designed binder)
chain: B2 chain with Y45P, W46T, Q47G, D48H, I49S, P50L
IC50 [4]: 10 to 50 µM

B7: BBIt-AV-V4 (BBIt-VEGF-V4-A13I-S25R-M27A-L29P-S31A-F50K-V52T, peptide KHSAKAE) (designed binder)
chain: B2 chain with R44K, Y45H, W46S, Q47A, D48K, I49A, P50E
IC50 [1]: 2 to 10 µM

B8: BBIt-AV-V6 (BBIt-VEGF-V6-A13I-S25R-M27A-L29P-S31A-F50K-V52T, peptide PVTKRVH) (designed binder)
chain: B2 chain with R44P, Y45V, W46T, Q47K, D48R, I49V, P50H
IC50 [1]: 2 to 10 µM

B9: MM007-Q-BBIt-FGF-5 (BBIt-A13I-L29P-F50T-V52A with the FGF-5 binding peptide MM007 RTQPYPL) (designed binder)
chain: DPDDESSKPCCDQCICTKSNPPQCRCSDMRPNSCHSACKSCACRTQPYPLCTCADITDFCYEPCKPSE
notes: also called BBIt-MM007-Q-A13I-L29P-F50T-V52A
IC50 [5]: 10 to 50 µM

B10: FGFps2-Q-BBIt-FGF-5 (BBIt-A13I-L29P-F50T-V52A with the FGF-5 binding peptide FGFps2 TWIDSTP) (designed binder)
chain: B9 chain with R44T, T45W, Q46I, P47D, Y48S, P49T, L50P
notes: also called BBIt-FGFps2-Q-A13I-L29P-F50T-V52A
IC50 [6]: > 250 µM | IC50 [5]: 10 to 50 µM

B11: PEN3-Q-BBIt-TGF (BBIt-A13I-L29P-F50T-V52A with the TGFβ1 binding peptide PEN3 PENINVLP) (designed binder)
chain: DPDDESSKPCCDQCICTKSNPPQCRCSDMRPNSCHSACKSCACPENINVLPCTCADITDFCYEPCKPSE
notes: also called PEN3-Q-BBIt-TGFβ1; BBIt-PEN3-Q-A13I-L29P-F50T-V52A
IC50 [7]: 10 to 50 µM

B12: MM021W-Q-BBIt-TGF (BBIt-A13I-L29P-F50T-V52A with the TGFβ1 binding peptide MM021W KHNVDWL) (designed binder)
chain: B9 chain with R44K, T45H, Q46N, P47V, Y48D, P49W
notes: also called MM021W-Q-BBIt-TGFβ1; BBIt-MM021W-Q-A13I-L29P-F50T-V52A
IC50 [7]: 10 to 50 µM

B13: BBIt-TNF-T2 (BBIt-TNFα-T2-A13I-S25R-M27A-L29P-S31A-F50K-V52T, peptide APEPILA) (designed binder)
chain: B2 chain with R44A, Y45P, W46E, Q47P, D48I, I49L, P50A
IC50 [8]: 50 to 250 µM

B14: BBIt-TNF-T3 (BBIt-TNFα-T3-A13I-S25R-M27A-L29P-S31A-F50K-V52T, peptide DMIMVSI) (designed binder)
chain: B2 chain with R44D, Y45M, W46I, Q47M, D48V, I49S, P50I
notes: the listing entry must be checked
IC50 [8]: 50 to 250 µM
